According to patent publication KR20140148294A (dated 2014):

Target: IGF-1R 단백질 (Sino biological Inc. 10164H08H) (UniProt P08069 31-932)
Assay: ELISA, coated IGF-1R (50 ng/well), anti-human Fc-HRP

IGF-1R 단백질 (Sino biological Inc. 10164H08H), sequence (P08069 31-932 limits assumed): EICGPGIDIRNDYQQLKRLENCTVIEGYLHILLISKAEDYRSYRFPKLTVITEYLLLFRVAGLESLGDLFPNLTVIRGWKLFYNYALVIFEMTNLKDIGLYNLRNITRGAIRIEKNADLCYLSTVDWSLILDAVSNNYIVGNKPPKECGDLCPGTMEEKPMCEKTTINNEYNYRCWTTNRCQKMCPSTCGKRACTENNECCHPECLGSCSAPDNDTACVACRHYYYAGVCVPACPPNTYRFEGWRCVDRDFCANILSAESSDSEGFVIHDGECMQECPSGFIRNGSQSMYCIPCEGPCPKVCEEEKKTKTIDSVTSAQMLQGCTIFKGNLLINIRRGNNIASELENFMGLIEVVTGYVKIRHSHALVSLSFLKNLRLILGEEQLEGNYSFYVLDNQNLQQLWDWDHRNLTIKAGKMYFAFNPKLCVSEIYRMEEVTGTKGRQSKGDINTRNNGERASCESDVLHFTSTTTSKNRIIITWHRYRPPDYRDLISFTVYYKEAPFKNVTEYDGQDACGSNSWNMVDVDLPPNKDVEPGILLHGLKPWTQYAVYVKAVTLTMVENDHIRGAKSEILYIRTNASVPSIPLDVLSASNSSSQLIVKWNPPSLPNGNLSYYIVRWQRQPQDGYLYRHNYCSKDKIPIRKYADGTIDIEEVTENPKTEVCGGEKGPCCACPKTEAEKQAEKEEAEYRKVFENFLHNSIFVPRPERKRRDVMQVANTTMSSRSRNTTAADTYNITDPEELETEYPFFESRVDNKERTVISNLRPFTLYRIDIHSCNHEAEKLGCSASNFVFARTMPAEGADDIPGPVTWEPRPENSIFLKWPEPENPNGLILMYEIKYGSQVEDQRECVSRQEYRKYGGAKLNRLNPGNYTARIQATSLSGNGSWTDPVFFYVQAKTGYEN

EC50: 0.148 nM
B1: MKJP2 인간 단일클론항체 (antibody, human IgG1, lambda, V domains shown)
VH: EVQLLESGGGLAQPGGSLRLSCAASGFTFSGYAMSWVRQAPGKGLEWVSAISSDGGSTYYADSVKGRFTISRDNSKNTLYLQMNSLRAEDTAVYYCARDPWFSRWTAFDYWGQGTLVTVSS
VL: QSVLTQPPSASGTPGQRVTISCSGSSSNIGNNAVNWYQQLPGTAPKLLIYSNSKRPSGVPDRFSGSKSGTSASLAISGLRSEDEADYYCGTWDYSLSGYVFGGGTKLTVLG
notes: Human anti-IGF-1R antibody without IL2, used as the control in the ELISA; also called 1229 클론
